Source: paper PMC3164656, “Burkholderia cenocepacia BC2L-C Is a Super Lectin with Dual Specificity and Proinflammatory Activity” (PLoS Pathogens, 2011)

Experiments:
B. cenocepacia K56-2 = assay: Mannose-dependent lectin extraction from bacterial surface (Western blot); set-up: species or system Burkholderia cenocepacia; details: 50 mM D-mannose, 5 min, FLAG-tagged lectins
Procedure: Culture supernatant proteins were precipitated with trichloroacetic acid as described previously The protein concentration was determined by Bradford assay (Bio-Rad) and 4 µg of protein were loaded on a 18% SDS-PAGE gel. After electrophoresis, gels were transferred to nitrocellulose membranes for immunoblot analysis. The membranes were incubated with the 4RA2 monoclonal antibody (Neoclone) cross-reacting with the B. cenocepacia RNA polymerase subunit alpha (cytosolic protein, cell lysis control) and the FLAG M2 monoclonal antibody (Sigma). The Alexa Fluor 680 goat anti-mouse IgG (Molecular Probes) was used as a secondary antibody. Detection was performed using the Odyssey Infrared Imager (LI-COR Biosciences).
Overnight cultures were diluted to an OD600 nm of 0.03 in 50 mL LB and grown at 37°C for 8 h. Cells were then centrifuged at 5000 g for 10 min. The pellet was washed twice with 25 mL of phosphate buffered saline (PBS) and finally resuspended in 1.5 mL PBS. Five hundred µL aliquots were placed into two eppendorf tubes to which 500 µL of PBS or 500 µL of 100 mM D-mannose made in PBS (50 mM final concentration) was added. Samples were gently mixed by inversion and incubated for 5 min at room temperature. Samples were centrifuged at 6000 g for 5 min, supernatants were collected (800 µL) and filter-sterilized using […] filters. […]

[1] = molecular target: BC2L-C-ct, C-terminal domain of BC2L-C (Burkholderia cenocepacia); assay: SEC-MALS; Superdex 200, 20 mM Tris, 250 mM NaCl, 1 mM CaCl2, pH 7.5; loaded at 4.2 mg/mL BC2L-C, 7.5 mg/mL BC2L-C-nt, 10.7 mg/mL BC2L-C-ct; MALLS with refractometry
[2] = molecular target: BC2L-C-nt, N-terminal TNF-α-like domain of BC2L-C (Burkholderia cenocepacia); assay: as above
[3] = molecular target: BC2L-C, soluble lectin from Burkholderia cenocepacia (whole protein) (Burkholderia cenocepacia) (UniProt B4EH87); assay: as above
BC2L-C-nt = tested on: BC2L-C-nt; set-up: method as in PMID 20152153; details: cited from earlier work
BEAS-2B cells = assay: IL-8 production by respiratory epithelial cells (ELISA); assay type: cell-based, human; details: 0.3 µM, 15 h, ELISA of supernatants
Procedure: BC2L-C and its separate domains were used for the stimulation of the human bronchial cell line BEAS-2B obtained from the American Type Cell Collection (Manassas, VA). Cells were maintained in serial passage in F-12K culture medium supplemented with 10% FCS, 1% penicillin and streptomycin, 1% glutamine and 10 mM HEPES in 75 cm2 culture flasks and seeded at 5×10^4 on 24-well plates 3 days before stimulation. In all experiments, BEAS-2B cells were stimulated during 15 hours with the different agonists in a 300 µL medium. IL-8 concentrations in cell culture supernatants were determined using a Duo-Set ELISA kit. Duo-Set ELISA kit and the recombinant human TNF-α were obtained from R&D Systems (Minneapolis, MN).

In the case of `OC[C@H]1OC(O)[C@@H](O)[C@@H](O)[C@@H]1O` (stereo partly drawn) [D-Man, D-mannose], the “release of surface-bound lectins into supernatant” value (B. cenocepacia K56-2) is reported as “BC2L-B and -C lectins are released into the supernatant”.

For “BC2L-C-ct, C-terminal domain of BC2L-C (domain or fragment)”, the stoichiometry N [1] was 2.

With “BC2L-C-nt, N-terminal TNF-α-like domain of BC2L-C (domain or fragment)” the stoichiometry N [2] was 3.

In the case of “BC2L-C, soluble lectin from Burkholderia cenocepacia (whole protein) (from UniProt B4EH87 1-129) (natural protein)”, the stoichiometry N [3] is reported as 6.

In the case of `C[C@H](O)[C@@H](O)[C@@H](O)[C@H](O)C=O` [fucose], the “binding of isolated BC2L-C-nt domain” value (BC2L-C-nt) is given as “binds strongly to fucose”.

B1: BC2L-C: soluble hexameric lectin from Burkholderia cenocepacia with fucose- and mannose/heptose-binding domains, recombinant (protein)
chain: MADSQTSSNRAGEFSIPPNTDFRAIFFANAAEQQHIKLFIGDSQEPAAYHKLTTRDGPREATLNSGNGKIRFEVSVNGKPSATDARLAPINGKKSDGSPFTVNFGIVVSEDGHDSDYNDGIVVLQWPIG
With B1 the IL-8 production (BEAS-2B cells) was “markedly increase in IL-8 production”.
